Measured values taken from US7919262B2, “14-3-3 proteins for diagnosis of Parkinson's disease” (The UAB Research Foundation, priority 2007, dated 2011).

Each molecule was assayed on H4 cells (assay: α-syn aggregation assay (synT + synphilin co-transfection)). Settings: isoform co-transfected with synT and synphilin; 24 hours after transfection; vs empty vector.
Format: cell-based
Description: H4 cells were cotransfected with either empty vector or a 14-3-3 isoform along with synT and synphilin. 24 hours after transfection, cells were fixed and stained with a monoclonal antibody against α-syn. Cells that stained for α-syn were scored as positive or negative for α-syn aggregates, with the rater blind to experimental condition. Results reflect three independent experiments with four replicates per experiment. ***p<0.001 (Bonferroni's multiple comparison test).
To evaluate this hypothesis the effect of increased 14-3-3 polypeptide expression on α-syn aggregation was evaluated. In this experiment, the model of McLean et al., in which α-syn/green fluorescent protein (GFP) fusion protein (synT) forms visible aggregates in cells when expressed with synphilin (McLean, P J et al., Neuroscience, 104:901-12, 2001) was used. This system has been used to evaluate the effect of different polypeptides on α-syn aggregation (Kiucken, J., et al, J Biol Chem, 279:4625-31, 2004). Briefly, H4 cells were co-transfected with either empty vector or a vector containing nucleic acid encoding a 14-3-3 isoform, along with synT and synphilin. Twenty-four hours after transfection, cells were fixed and stained with a monoclonal antibody against α-syn. Results are shown in FIG. 3 and reflect three independent experiments with 4 replicates per experiment. […] These are the same 14-3-3 isoforms that were decreased in α-syn transgenic mice (see FIG. 2).
Primers against each of the human 14-3-3 isoforms were designed using Primer3. […] All cells stained for α-syn were scored as positive or negative for α-syn aggregates, with the rater blind to experimental condition. • α-syn toxicity assay H4 cells were transfected with α-syn and either empty vector control or a 14-3-3 isoform using Superfect transfection reagent (Qiagen). 24 hours after transfection, toxicity was measured by the amount of adenylate kinase released into the media using the ToxiLight™ kit (Cambrex). • Creation of stable cell lines Each 14-3-3 isoform was subcloned into the mammalian expression vector mcDNA3.1/V5-His (Invitrogen). […]

Molecule	decrease in the number of H4 cells displaying α-syn aggregates [%]
14-3-3γ: 14-3-3 polypeptide γ isoform, overexpressed from expression vector	40
14-3-3θ: 14-3-3 polypeptide θ isoform, overexpressed from V5/His-tagged pcDNA3.1 vector (or as transgene in C. elegans) (protein, UniProt P27348 1-245, looked up, V5/His tag) 14-3-3 protein theta: MEKTELIQKAKLAEQAERYDDMATCMKAVTEQGAELSNEERNLLSVAYKNVVGGRRSAWRVISSIEQKTDTSDKKLQLIKDYREKVESELRSICTTVLELLDKYLIANATNPESKVFYLKMKGDYFRYLAEVACGDDRKQTIDNSQGAYQEAFDISKKEMQPTHPIRLGLALNFSVFYYEILNNPELACTLAKTAFDEAIAELDTLNEDSYKDSTLIMQLLRDNLTLWTSDSAGEECDAAEGAEN	40
14-3-3ε: 14-3-3 polypeptide ε isoform, overexpressed from expression vector (protein, UniProt P62258 1-255, looked up) 14-3-3 protein epsilon: MDDREDLVYQAKLAEQAERYDEMVESMKKVAGMDVELTVEERNLLSVAYKNVIGARRASWRIISSIEQKEENKGGEDKLKMIREYRQMVETELKLICCDILDVLDKHLIPAANTGESKVFYYKMKGDYHRYLAEFATGNDRKEAAENSLVAYKAASDIAMTELPPTHPIRLGLALNFSVFYYEILNSPDRACRLAKAAFDDAIAELDTLSEESYKDSTLIMQLLRDNLTLWTSDMQGDGEEQNKEALQDVEDENQ	40
